Experimental data taken from the nanobody polyreactivity screen of Harvey et al. (2022).

Test: yeast display, Sf9 membrane polyspecificity reagent, FACS + sequencing; frameworks hold sequencing errors
Method in brief: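 After 36–48 hours of galactose induction, yeast (Saccharomyces cerevisiae BJ5465) displaying a synthetic nanobody library were stained at 4 °C for 1 hour with 10% biotinylated, detergent-solubilized Sf9 membrane reagent. Streptavidin microbeads enriched the stained cells before FACS sorting into low and high (top ~1%) gates on anti-HA and streptavidin fluorescence. Each clone's polyreactivity label reflects its gate of origin.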

| Sequence | polyreactivity (PSR sort gate) |
| --- | --- |
| QVHLVESGGGLVQAGGSLRLSCAASGSIFSYYAMGWYRQAPGKERELVAAISQSGGSTYYSDSVKGRFTISRDNAKNTVYLQMNSLKPEDTAVYYCNSGRGTFKRYTALQYWGQGTQVTVSS | low polyreactivity |
| QVQLVESGGGLVEAGGSLRLSSAASGINFKMYAMVWSRQAPGKERELVADITYVGSTKYADSVKGRFTISRDNAKNTFYLQMNSLKPEDTAVYYFNAAQYYWYEYDYWGQGTQVTVSS | low polyreactivity |
| QVQHVESGGGLVQAGGSHRLSSAASGSTFIPNAMRWYRQAPGKERELVAAISGSGGRTYYADSVKGRFTISRDNAKNTVYLQMNSLKPEDTAVYYCAASGTSRSRKSYYWGQGTQVTVSS | high polyreactivity |
| QVQLVESGGGLVQAGGSLRLSCAASGFTFKSNAMGWYRQAPGKERELVAAISGSGGRTYYADSVKGRYTISRDTAKYTVYLQMNSLKPEDTAVYYCAADYPVRSYDYWGQGTQVTVSS | low polyreactivity |
| QVQLVESGGGLVQAGGSLRLSCAASGRIFYYNGMGWSRQAPGKERELVAAITANGGSTYYADSVKGRFTISRDNAKNTVYLQMNSLKPDDTAVYYCAARYRFGGIRRYNYWGQGTQVTVSS | high polyreactivity |
| QVQLVESGGGLVQAGGSLRLSCAASGRTFTRYTMGWYRQAPGKERELVAAITRGGSTYADSVKGRFTISRDNAKNTVYLQMNSMKPEDTAVYYCAAYWGFYPWRAYPYDYWGQGTQVTVSS | high polyreactivity |
| QVQLVESGAGLVQAGGSLRLSCAASGSTVAGNAMGGYRQAPGTERELVAAIDSSTGSTYYADCVKGRFTISRDNAKITVYLLMNSLKPEDTAVYYCADDQVHKREYDYWGQGTQVTVSS | low polyreactivity |
| QVQLVDSGGGLVQAGGSLRLSCAASGGLFIVNDMGWYIQAPGKEMELVAAITSGGGKNYADSVKGRFTISRDNAKNTVYLQMNSLKPEVTAVYYCARDTYRQIVSNESYGFWGHGTQVTVSS | low polyreactivity |
| QVQLVESGGGLVQAGGSLRLSCAASGGIFLPYAMGWYRQAPGKERELVAGITSVGSTYADSVKGRFTISRDNAKNTVYLQMNSLKPEDTAVYYCNADIYFVEYDYWGQGTQVTVSS | low polyreactivity |
| QVQLVESGGGLVQAGGSLRLSCAASGYIFDDYAMGWYRQAPGKERELVAAISRGGSTYYADSVKGRFTISRDNSKNTVYLQMNSLKPEDTEVYYCAAVYRVRRITYVYWGQGTQVTVSS | high polyreactivity |
| QVQLVESGGGLVQAGGSLRLSCAASGSIFKANAMGWYRQAPGKERELVATISTSSGGTYYADSVKGRFTISRDNAKNTVYLQMNSLKPEDTAVYYCAALTYPPFYWGQGTQVTVSS | high polyreactivity |
| QVELVESGGGLVQAGGSLRLSCAASGFTFDRYAMGWYRQAPGTERELVAALTRRGTTTYYADSVKGRFTISRDNAKNTVYLQMNSLKPEDTAVYYCAAKRGSVSRPDYGANDESWGQGTQVTVSS | high polyreactivity |
| QVQLVESGGCLVQAGGSLRLSCAASGRTFFGYAMGWYRQAPGKERELVAALTRGGSTNYADSVKGRFTFSRDNAKNTVYLQMNSLKPEDTAVYYCNAERYRSRRYPYRYLYYYWGQGTQVTVSS | high polyreactivity |
| HVQLVESGGGLVQAGGSLRLSCAASGRTLYRNAMGWYRQAPGKERELVARITWSGASTYYADYVKGRFTISRDNAKNTVYLQMNSLKPEVTAVYYCAAQYLSRRYGPYYTYNYWGLGTQVTVSS | high polyreactivity |
| QVQLVESGGGLVQAGGSLRLICAASGFISNINVMGWYRQAPGKERELVAAITYIDGSTFYADSVKGRFTISRDNAKNTVYLQMNSLKPEDTAVYYCAKTRVRGSEFGYWGQGTQVTVSS | low polyreactivity |
| QVQLVESGGGLVQAGGSLRLSCAASGFTFSSYAMGWYRQAPGKERELVAAISRSGGSTYYADSVKGRFTISRDNAKNTVYVQMNSLKPEDTAVYYCAARFFARHYYWGQGTQVTVSS | high polyreactivity |
| QVQLVESGGGLVQAGGSLRLSCAASGSTFFAYAMGWYRQAPGKERELVAAITGRGSTYYADSVKGRFSISRDNAKNTVYLQMNSLKPEDTAVYYCAAQRSRRYYRLDYWGQGTQVTVSS | high polyreactivity |
| QVHIVESGGGLVQAGGSLRLSSAASGRIFYRYAMGWYRQAPGKERELVAAISRRGGSTYYADSVKGRFTISRDNAKNTVYLQMNSLKPEDTAVYYCNVYRSAFSYDSWGQGTQVTVSS | high polyreactivity |
| QVQHVESAGGLVQAGGSLRLSCPASGRTINRNAMGWYRQAPGKERELVAAISWSGGRTYYADSVKGRFTISRDTAKNTVYLQMTSLKPEDTAVFSCAAPGNKYWGQGTQVTVSS | high polyreactivity |
| QVQLVESGGGLVQAGGSLRLSCAASGSIFGAYAMGWYRQAPGKEREFVAAISSRGGNTYYADSVKGRFTISRDNAKNTVYLQMNSLKPEDTAVYYAVFRYHWKYDYWGQGTQVTVSS | high polyreactivity |
| QVQLVESGGGLVLAGGSLRLSCAASGFTFLDNAMGWYRQAPGKERELVAAISGIGGSTSYADSVKGRFTISRDNAKNTVYLQMNSLKPEDTAVYYCATRLYKWSFTPKFEMDHWGQGTQVTVSS | low polyreactivity |

| Sequence | polyreactivity (PSR sort gate) |
| --- | --- |
| QVQLVESGGGLVQAGGSLRLSCAASGPIFPAYAMGWYRQAPGKERELVASIRRGGITYADSVKGRFTISRDNAKNTVYLQMNSLKPEDTAVYYCNADYRGWGYHMDYWGQGTQVTVSS | low polyreactivity |
| HVQLQESGGGLVQEGGSLRLSCAASGSIFQATYMGWYRQAPGKELEFVASITYGSITNYADSVKGSFTIGRDNAKDTLYLQMNSLKPEDTAVYYCAVDRHYIPDFHYWGQGTQVTVSS | low polyreactivity |
| QFQLVESGGGLVQAGGSLRLSCAASGFTFVSNDMGWYRQAPGKVRELVAAISQGGGSTYYADSVKGRFTISRDNAKNTVYLQMNSLKPEDNAVYYCDAEDVYFGYDYSGQGTQVTVSS | low polyreactivity |
| QVQLVESVGGLVQAGGSLRLSCAASGRTFGRYAMGWYRKAPGKERELVAAINRGGSTKYADSVKGRFTISRDNAKNTVYFQMNSLKPEDTAVDYCAKDRHPALHYDYWGQGTQVTVSS | low polyreactivity |
| QVQLVESGGGLVQAGGSLRLSCAASGSNFHYNAMGWYRQAPGKERELVAAIRWGGGSTFYADSVKGRFTISRDNAKNTVYLQMNSLKPEDTAVYYCAADYWYETRDFTFFDLYVSYEYWGQGTQVTVSS | low polyreactivity |
| QVQLVESGGGLVQAGGSLRLSCAASGSTFSRYAMGWYRQAPGKERELVAAIRRSAGSTYYADSVKGRFTISRDNAKNTVYLQMNSLKPEDTAVYYCAAAGRYDYWGQGTQVTVSS | high polyreactivity |
| QVQLVESGGGLVPAGGSLRLSCAASGRTFAGNAMGWYRPAPGTERELVAVISRGGSTYYADSVKGRFTISRDNAKNTVYLQMNSLKPEDTAVYYCAARLRTTSVRGRYDYWGQGTQVTVSS | high polyreactivity |
| QVQLVESGGGLVQAGGRLRLSCAASGRTFHYYALGWYRQATGKERELVAVIRYSGGRTYYADTVKGRFTISRDNAKNTVYLQMNSLKPEDTAVYYCNKGRWRTDPPVYLIAFDYWGQGTQVTVSS | low polyreactivity |
| QVQLVESGGGLVQAGGSLRLSCAASGRIFGGYAMGWSRQAPGKERELVAAISNGGSTYYADSVKGRFTISRDNAKNTVYLQMNSLKPEDTAVYYCAARWNWTGYRYDHWGQGTQVTVSS | low polyreactivity |
| QVQLVESGGGLVQAGGSLRLSCAASGRIFSAYAMGGYRQAPGKGRELVAAISYSGGSTYYADSVKGRFTISRDNAKNTVYLQMNSLKPEDTAVYYCAASGPRWWRFGYWGQGTQVTVSS | low polyreactivity |
| QVQLVDSGGGLVQAGGILRLSCAASGFIFKKNAMGWYRQAHGKEREFVAAITSSGGSTYYADSVKGRFTISRDNAKNTVYLQMNSLKPEDTAVYFCARGTSWWRSRSITFTYDYWGQGTQVTVSS | high polyreactivity |
| QVQLVDSGGGLVQAGGSLRLSCAASGSIFGSNAMGWYRQAPGKERELVAAITWSDGSTYYADSVKGRFTISRDNAKNTVYLQMNSLKPEDTAVYYCATDYGYSWYDYWGQGTQVTVSS | low polyreactivity |
| QVQLVESGGGLVQAGGSLRLSCAASGLILKYYAMGWDRPAPGTEREFDAALTRRGGITYYADSVKGRFSISRDNAKNTVYLQMNSLKPEDTAVYYCAADPKLGSLAYWRYSYPLYDYWGQGTQVTVSS | low polyreactivity |
| QVQLVESGGGLVQAGGSLRLSCAASGRTFASYVMGWYRQAPGKERELVAAIDWHTGSTYYADSVKGRFTISRDNAKNTVYLQMNSLKPEDTAVYYCAAVYFLYPEGYWQTLYEYYYWGQGTQVTVSS | low polyreactivity |
| PVQLVESGGGLVQAGGSLRLSCAASGSTFAYNAMGWYRQAPGKERELVAAISWSGGTTYYADSVKGRFTISPDNAKNPVYLQMNSLKPEDTAVYYCAADVYLNRRQRMYYWGQGTQVTVSS | high polyreactivity |
| QVQLVESGGGLVQAGGSLRLSCAASGSTFYLYTMGWYRQAPGKERELVAAINRSGGRTYYADSVKGRFTISRDNAKNTVYLQMNSLKPEDTAVYYCAADLASYAYRYDYWGQGTQVTVSS | high polyreactivity |
| QVQLVESGGGLVQAGGSLRLSCAASGFTFDVNAMGWYRQAPGKERELVATISSNGGSTYYADSVKGRFTISRDNAKNTVYLQMNSLKPEDTAVYYCAADVYRLLRRYRYYYWGQGTQVTVSS | low polyreactivity |
| QVQLVESGGGLVQAGGSLRLSCAASGFTIISYTMGWYRQAPGKDRELVAAIRGGGRTYYADSVKGRFTISRDNAKNTVYLQMNSLKPEDTAVYYCAARLRYGGHYDYWGQGTQVTVSS | high polyreactivity |
| QVQLVESVGGLVQAGGSLRLSCAASGITFAWYALGWYRQAPGKERELVAAITWSGDSTYYADSVKGRFTISRDNAKNTVYLQMNSLKPEDTAVYYCAAAYFSSGYKYYYWGQGTQVTVSS | high polyreactivity |
| QVQLVESGGGLVQAGGSLRLSCAASGSTFGGYAMGWYRQAPGKEREFVAAISWRGGGTYYADSVKGRFTISRDNAMNTVYLQMNSLKPEDTAVYYCAAERRYTYQYNYWGQGTQVTVSS | high polyreactivity |
